From PMC12117459

Columns and labels:
Assay in all cases: NMR
Lys53 = conditions: 25 °C; <60 mM (no added salt; only HCl/NaOH used for pH adjustment); none (water without buffer); folded dimer, free protein, about 1.5 mM
Lys6 = conditions: 25 °C; <60 mM (no added salt; only HCl/NaOH used for pH adjustment); none (water without buffer); folded dimer, free protein, about 1.5 mM
Lys56 = conditions: 25 °C; <60 mM (no added salt; only HCl/NaOH used for pH adjustment); none (water without buffer); folded dimer, free protein, about 1.5 mM
Lys45 = conditions: 25 °C; <60 mM (no added salt; only HCl/NaOH used for pH adjustment); none (water without buffer); folded dimer, free protein, about 1.5 mM
Tyr5 = conditions: 25 °C; <60 mM (no added salt; only HCl/NaOH used for pH adjustment); none (water without buffer); folded dimer, free protein, about 1.5 mM
Lys32 = conditions: 25 °C; <60 mM (no added salt; only HCl/NaOH used for pH adjustment); none (water without buffer); folded dimer, free protein, about 1.5 mM
Tyr16 = conditions: 25 °C; <60 mM (no added salt; only HCl/NaOH used for pH adjustment); none (water without buffer); folded dimer, free protein, about 1.5 mM
Lys55 = conditions: 25 °C; <60 mM (no added salt; only HCl/NaOH used for pH adjustment); none (water without buffer); folded dimer, free protein, about 1.5 mM
Lys30 = conditions: 25 °C; <60 mM (no added salt; only HCl/NaOH used for pH adjustment); none (water without buffer); folded dimer, free protein, about 1.5 mM
Lys12 = conditions: 25 °C; <60 mM (no added salt; only HCl/NaOH used for pH adjustment); none (water without buffer); folded dimer, free protein, about 1.5 mM
Tyr47 = conditions: folded dimer
His31 = His31 (UniProt position 31, TIGIGHLLTKS); conditions: cited from earlier work

Substance | pKa (Lys53) | pKa (Lys6) | pKa (Lys56) | pKa (Lys45) | pKa (Tyr5) | pKa (Lys32) | pKa (Tyr16) | pKa (Lys55) | pKa (Lys30) | pKa (Lys12) | pKa (Tyr47; 25 °C, <60 mM (no added salt; only HCl/NaOH used for pH adjustment), none (water without buffer), free protein, about 1.5 mM) | pKa (Tyr47; cited from earlier work) | pKa (His31)
Ribbon-helix-helix (rhh) protein ORF56 from plasmid pRN1 (Sulfolobus islandicus (plasmid pRN1)) | 10.25 ± 0.02 | 10.79 ± 0.01 | 10.96 ± 0.03 | 11.27 ± 0.02 | 9.85 ± 0.01 | 10.48 ± 0.01 | 9.85 ± 0.01 | 11.08 ± 0.04 | 10.86 ± 0.01 | 10.54 ± 0.01 | >13.7 | above pH 13 | 
T4 lysozyme (Enterobacteria phage T4 (Tequatrovirus T4)) |  |  |  |  |  |  |  |  |  |  |  |  | 9
